Assay results taken from the DeepSol protein solubility set.

Assay: soluble on expression in E. coli; label from the status in PepcDB or PDB records

| Sequence | soluble on expression in E. coli |
| --- | --- |
| MGSDKIHHHHHHMLPRLLDRCAGMVSHDWTALDRDLRRFLPKKSVVSKRQELLVYDCDGLTIDRHCPPLAVLPETTEEVSQILACCHRHSIPFVARGSGTGLSGGALVEQEALLVVTSRMRRILSMDLDNHTITVQPGVINSWVTRAVAGEGFYYAPDPSSQVVCSIGGNVAENSGGVHCLKYGVTSNHVLGLEVVLADGTVTLLGGGLPEHAELDLRGAFIGSEGTLGIATAITLRLLRAPQHVTVLLADFPTMESAGEAVCQVTAAGVLPAGMEIMDNFMINAVNDLFGFDEYPRDAAAVLLIELDGQAAEVTVAADQASGLCSKAGARTIRRAEEPADRALLWKGRKSAFAAVGQISPTYYVQDGVVPRSTLPRVLMAIERLSREYELPVANVFHAGDGNLHPLILYNADTPDVESRVRDLGSAILRECLDVGGSITGEHGVGADKRCYLDWMFAADDLSTMKLLRRAFDPDGRANPDKIFPTPKSCGESARRQVILTSEGLEMPSEAKAF | not soluble |
| GPGSMVERTADQRIRTTEWEEVQYKFGNRVGKYATNEVELLAQKIADNNLNAPLKAYDPHEEKVMDKVERGGYDTGRAEEEGGPAFDDALPDDDDEALAAFRRKRLAELQRQKEVERFGVLRHVSGADYMTEVTEASSTNWVVAVLIKPGHDNCEALLSVMRVAAQRHRDVKFLSMVSTEAIKNFPDRHLPCVLLYRDKKLENQLTEVASWKGKQNRLSLESVERVLHRYGVIRNTDYDHDDDDDDA | not soluble |
| MAHHHHHHMVFDVNGDFVENEQQFIEAARKSINLTIKLQNTSGMSELIARVLEDDDRRASGAISTSALDFDELLRTTPRFNFLSGDHPIFRRYNKRLAQQRQAAALIAQRTAEAELQRQAEIKERLRKALEEEAAVQKKKEQEKAELQRMRAAQEPARFVPEEPFLKIIKDESSFGQVERELKKPETAAEPKVESKAEGAASEAITNTATGTSTTLSNDVAATISAEELLVLVGVPTETMETTTPALEDLAEAIALPSSENTATYVALPAEEYTLCSGERVVSVIKKRSGPIPAPPPGTPPVINKAAASRLSEPVKRVKPVEKMVRNCTPSNEQPYKSRHRSRSPRSRRRSERDHSSKECSRRHRRDEPSSHRHHKNSRDSKHRR | not soluble |
| MAPKCWSNLPSDVKREVLEHGDCQQWFNVRLCSRADMNLVDSLKLRIPFLKIQISNTTFSIIIVESPSAILRIDLHQKSGGNAEFSVEIFKNSDLELGNLIKTIENTTLDAEISNLLEKSIFHRKIDIATCQIQADGLQAENPVLAMIHAKFTENAPKKLIFSGKSMEENRFLAKFFENLNIDFVFRSWRKDLSREWGEGMNHLRIKIFEVSKWTTLLGDFEHFTAYDEIEPVMYMARILSRPMKRSHWFPGFHVPVAERLFRQIFRQEMFEKFENHSIRKSPINLKLWIFVKFTKCGISIFVGDPKDFNERDGTCDLEWMCPNCAPKTMENWFFRETIGKLHF | not soluble |
| MRLSFRTLQRRNALGDAPRHRSAQRRAVKTGRRASRTACDAERRTIVERAWHDSLEHHHHHH | not soluble |
| FSDFIANHIFMESRCEGIIRITAISLPFMCIHNCLSNYYYSQKESFLPASSQLVEQLVRIGTIILYVRIKNVSTISIADAVTGNIFGEFAAATYCAIPLFFRSIHNKSMMQKLSCSLREYRYIVKYAFPINANQTVLHLLEGAEAILIPAILCMHGLTKDNAISQFGILTGM | not soluble |
| MFGKGENLAATDYQMVRHPDIHQAQCLYQTFRDKAVCLTGGDFTGRVIVCQHHGCGIVIQGAFNHFPGMDFRAVDGAGEEGFTGNQLILVIQIQHPELFTLQSRHVQNQPFPCRTGGGEGHAGFMKMAVQGFQGPQNETALAGRHFSGQKGNLLHCSCPLSVNNAHNGAAFRMLQGVIPQTVIMNRHGITLRTAGVMTVRHQTGGNAGGFRAHFSAVTVHDVKQHPCFVIIVIRFGCHKCATVVQGVQIPDTTAVVFIQTVHPAEDPGLQGHPLWNEAKMLRPEADALFIRDYGGNQLLQASLRCTGRRGGVLRQCFHV | not soluble |
| MAHHHHHHMGTLEAQTQGPGSMKQPTAVIFDWYNTLIDTSINIDRTTFYQVLDQMGYKNIDLDSIPNSTIPKYLITLLGKRWKEATILYENSLEKSQKSDNFMLNDGAIELLDTLKENNITMAIVSNKNGERLRSEIHHKNLTHYFDSIIGSGDTGTIKPSPEPVLAALTNINIEPSKEVFFIGDSISDIQSAIEAGCLPIKYGSTNIIKDILSFKNFYDIRNFICQLINI | soluble |
| GVSVDARIAKNVEEFLAAAQEINPSYHLISGYRSVAYQTELYNSYVQQEMADDPTLTESQAEKKVQTYSQPPGASEHQTGLAIDMSTVDSLDEADPATVAKVKKIAPKYGFVLRFPDGKTSSTGVGYEDWHFRYVGKESAEYMTEHNLTLEEYLVLLKEKTK | not soluble |
| MGSDKIHHHHHHMKIGVVGPGAIGLLYTFYLQKSNQDVTLFTRTAKQADELNITGVTCIREGKRETVFPPVLPIESMLDQQLDYIFIAVKQYHITDILPFVRGKSSVVFLQNGMSHLHAMQKIENENIAVGIVEHGAKKEERHTVYHTGIGVTKFGIVRGRSIHFEKIFNCFPFPHFPIRIEDDWKGVMHKKLVVNVCINPLTALLQVKNGELITNPFFNQMMEQVFQEVVFLVKEEKEMVWEMVRHVCERTSHNTSSMLADVRANRQTEIGAIVGYVLEEAKKQQRSVPTLQFLFDAIKGLEVKV | not soluble |
| DERLLAREVQKMRFRRSTYSSPQPATQQPANGSERKNDSDNLVGAENHSAETPTDNRSAEVEQPYYPAKYEEELLRLIIRYGERKLLIYRHEEGAEKQTPSEVALAYYIKSDLNADGVDIGTDVFRQILDEAAEQSFDSGFVAAKYFRDHPNAQISHIAVELLTNRYALSRIHYGKGDESNAEEDLQMRVERELLTIKNVFIQVQIRALQKEIAQAQKAGDIELQLEIMNELRSMNEMKSELAHRLGDRTVLP | not soluble |
| SKEFFAPQRAGMKLRTFSDIDKYYTEQKKQEYHKEKVRVVAMAQVARERVRVAVNEHLNQKKYATQKLIEENKETIQNSLRQVWQNRFNYLEKARERKALFLKEKSQKASERLLVQNLNNERTLLTRGLLKIDRLEKNEAVLKEKSLIVKQKLKAEKYRKNLLKEMKKVRSQEIYKRHCEEKFVMDMIAFEKACERLQDAKTKVAIVKTNLDFKVPNGLIK | soluble |
| MGGGGEDEYESLPTHSVPVHLTAGALAGAVEHCVMFPFDSVKTRMQSLCPCPETKCPTPVHSLMSIVKREGWLRPLRGVNAVAAGSMPAHALYFTVYEKMKGYLTGNSAGHSNTLAYGASGVVATLIHDAIMNPAEVVKQRMQMAFSPYGSSLECARCVYNREGVAAFYRSYTTQLAMNVPFQAIHFMSYEFWQHVLNPEHKYDPKSHLIAGGLAGGLAAALTTPMDCVKTVLNTQQAAEADPANRRIFLQARYRYRGISDAVRTIYSQRGLSGFSCGLQARVIFQVPATALSWSVYELFKFMLSFEGGHSS | not soluble |
| SSQQIYGVKYGNVTFHVPSNQPLKEVLWKKQKDKVAELENSEFRAFSSFKNRVYLDTKSGSLTIYNLTSSDEDEYEMESPNITDSMKFFLYVGES | soluble |
| KFVSDVEKEMETLVEAVNKGKNSKKSHSFPPMNRDHRRIIHDLAQVYGLESVSYDSEPKRNVVVTAIR | soluble |
| GSSSSLPLYNQQVGDCCIIRVSLDVDNGNMYKSILVTSQDKAPTVIRKAMDKHNLDEDEPEDYELLQIISEDHKLKIPENANVFYAMNSAANYDFILKKR | soluble |
| MSAIENIVISMENATERRKHITKQFESKKLSFSFFNAYTYQSINQSINQSINQSINQSINQSINQSINQSNSILHNIEESRILTKGEKGCLISHFLLWNKCVNENFEYLKIFEDDVILGENAEVFLNQNEWLKTRFDFNDIFIIRLETFLQPVKLEKQTKIPPFNSRNFDILKSTHWGTAGYIISQGAAKYVIEYLKNIPSDEIVAVDELIFNKLVDVDNYIVYQLNPAICIQELQANQSKSVLTSGLEKERQKRSKIRKKKTLKQRLTRIKENIIRALNRKKWKEQQRIKEMQGKEIVRFMLEHHHHHH | not soluble |
| DKSNKLQNLVAEQLVGCGFNEILNNSLTRAAYYDGLESYPSKNLVMLLNPLSADLNCMRQTLLFGGLESIAHNANRKNADLKFFEFGNCYHFDAEKKNPEKVLAPYSEDYHLGLWVTGKMVSNSWAHADENTSVYELKAYVENIFKRLGLDLHSLVVGNLSDDIYSTALTVNTKGGKRLATFGVVTKKMLKAFDVDNEVYYADLNWKELM | soluble |
| MSHHPDLSVSLDQLLLRKEVRVRQQGEWLKRHSLPLVSFTVNMPGAVKLNAASQTVMDAGMRAIQELCQKTGWRQVACQLLVEKTGPEAFVVIQAPSASMLKKAMMKIEREHPLGRLMDLDVIDVDGHIISRQGAQLPRRRCLLCERDAVICARSRRHSVEALLAKIEEMTHDYSCCA | soluble |
| MSLKKTTWFAGRFPGYVSPLSSVALSVLAALCPLTSRGESYFNPAFLSADTASVADLSRFEKGNHQPPGIYRVDIWRNDEFVATQDIRFEAGAVGTGDKSGGLMPCFTPEWIKRLGVNTAAFPVSDKGVDTTCIHLPEKIPGAEVAFDFASMRLNISLPQASLLNSARGYIPPEEWDEGIPAALINYSFTGSRGTDSDSYFLSLLSGLNYGPWRLRNNGAWNYSKGDGYHSQRWNNIGTWVQRAIIPLKSELVMGDSNTGNDVFDSFGFRGARLYSSDNMYPDSLQGYAPTVRGIARTAAKLTIRQNGYVIYQSYVSPGAFAITDLNPTSSSGDLEVTVDEKDGSQQRYTVPYSTVPLLQREARVKYDLVAGDFRSGNSQQSSPFFFQGTVIAGLPAGLTAYGGTQLADRYRAVVVGAGRNLGDWGAVSVDVTHARSQLADDSTHQGQSLRFLYAKSLNNYGTNFQLLGYRYSTRGFYTLDDVAYRSMEGYDYEYDSDGRRHKVPVAQSYHNLRYSKKGRFQVNISQNLGDYGSLYLSGSQQNYWNTADTNTWYQLGYASGWQGISYSLSWSWSESVGSSGADRILAFNMSVPFSVLTGRRYARDTILDRTYATFNANRNRDGDNSWQTGVGGTLLEGRNLSYSVTQGRSSSNGYSGSASASWQATYGTLGVGYNYDRDQHDYNWQLSGGVVGHADGITFSQPLGDTNVLIKAPGAKGVRIENQTGVKTDWRGYAVMPYATVYRYNRVALDTNTMDNHTDVENNVSSVVPTEGALVRAAFDTRIGVRAIITARLGGRPLPFGAIVRETASGITSMVGDDGQIYLSGLPLKGELFIQWGEGKNARCIAPYALAEDSLKQAITIASATCIRPASEGGSHHHHHH | soluble |
| MTVKAVFFDIDGTLLNDRKNIQKTTQKAIQQLKKQGIMVGLATGRGPGFVQPFLENFGLDFAVTYNGQYILTRDKVLYQNQLPKSMIYKVIRYANEKKREISLGTASGLAGSRIIDMGTSPFGQVISSFVPKSWARTVEGSFKHLIRRIKPQSFRNLVTIMREPIYQVVLVASQAETKKIQEKFPHIKITRSSPYSLDLISVDQSKIKGIERLGEMFGFDLSEVMAFGDSDNDLEMLSGVGIGIAMGNAETVVKDGAHFTTDSNNNDGISKALAHYGLIH | not soluble |
| MVARISVGKNLYGALAYNQNKVDEGGAKVLSAHLLRYPEDGRFRPDESVRQFLEWMPNHYRTEKPVIHISLNPHPDDVLTDGQLAEIGREYMQRLGYGNQPYLVFKHEDIGRHHIHIVSLRVDSEGRKVSDKFEYRRSKEITELLEQKYGLHPAEGRKKGEEWQLKPVDVAKGDIKRQIACTLKPLLELYSFRTMGELRALLSLYNIGVEEVKGEIGGRTYHGILYTALDGNGETAATPIKSSRLGRTAGAQQLDRKMRESAARIKSAPCRERLRPLVADALRQSVDERDFRDRLAKEQIDLVLRRNGTDRIYGVTFIDHRSRTVLNGSRLGKEFSANMLNGHFQEQPPNSLSPLLPPVPSAVASGNGEKIPGGLLSDMEPELNYVPRYPKLLKPDKKKRRRRYGRQD | not soluble |
